{
  "source": "patent US20150010525A1",
  "about": "“Catalytic Tagging System to Study Macro-Molecular Interactions Using Engineered Ubiquitin Ligase and Ubiquitin-Like Proteins to Facilitate Substrate Identification” (THE REGENTS OF THE UNIVERSITY OF CALIFORNIA, priority 2012, published 2015)",
  "molecules": {"B1": {"name": "Serine/threonine-protein phosphatase PGAM5, mitochondrial: phosphoglycerate mutase family member 5, dimeric protein phosphatase (protein, UniProt Q96HS1 1-289, looked up)", "chain": "MAFRQALQLAACGLAGGSAAVLFSAVAVGKPRAGGDAEPRPAEPPAWAGGARPGPGVWDPNWDRREPLSLINVRKRNVESGEEELASKLDHYKAKATRHIFLIRHSQYHVDGSLEKDRTLTPLGREQAELTGLRLASLGLKFNKIVHSSMTRAIETTDIISRHLPGVCKVSTDLLREGAPIEPDPPVSHWKPEAVQYYEDGARIEAAFRNYIHRADARQEEDSYEIFICHANVIRYIVCRALQFPPEGWLRLSLNNGSITHLVIRPNGRVALRTLGDTGFMPPDKITRS", "modifications": "full-length", "notes": "phosphoglycerate mutase family member 5, dimeric protein phosphatase"}},
  "key": {"[1]": {"target": "T1, XIAP (Homo sapiens, UniProt P61081+P98170)", "T1 construct": "The N-terminus (residues 1-434) of XIAP was then fused via a flexible Gly-Gly-Ser-Gly linker to the NEDD8 E2, Ubc12; GST (N, cleaved yes); made in house; host or cells: E. coli BL21 (DE3)", "T1 sequence (P98170+P61081 fused)": "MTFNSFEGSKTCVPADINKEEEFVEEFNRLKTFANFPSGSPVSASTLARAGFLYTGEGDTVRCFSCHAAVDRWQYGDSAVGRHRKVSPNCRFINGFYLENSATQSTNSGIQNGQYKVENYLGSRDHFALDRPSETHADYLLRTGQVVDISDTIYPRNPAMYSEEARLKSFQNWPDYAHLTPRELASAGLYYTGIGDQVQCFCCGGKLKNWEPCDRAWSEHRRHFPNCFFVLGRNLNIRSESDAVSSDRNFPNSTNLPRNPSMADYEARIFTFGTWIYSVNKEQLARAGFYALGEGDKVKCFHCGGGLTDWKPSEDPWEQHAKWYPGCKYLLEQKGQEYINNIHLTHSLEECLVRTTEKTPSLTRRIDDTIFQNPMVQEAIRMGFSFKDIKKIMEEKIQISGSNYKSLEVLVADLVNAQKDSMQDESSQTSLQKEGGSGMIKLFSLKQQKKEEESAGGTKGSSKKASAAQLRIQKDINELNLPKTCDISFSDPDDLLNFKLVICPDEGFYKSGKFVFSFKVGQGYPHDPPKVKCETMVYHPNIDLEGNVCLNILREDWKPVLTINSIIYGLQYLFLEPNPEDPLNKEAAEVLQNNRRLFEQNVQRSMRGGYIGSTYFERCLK", "experiment": "SILAC mass spectrometry screen for XIAP substrates with NEDDylator^XIAP in apoptotic Jurkat cell lysate", "format": "biochemical", "details": "Heavy lysate with Ubc12", "procedure": "Jurkat cells were grown in media containing either light or heavy isotopes of lysine and arginine and induced to undergo apoptosis with STS. Light cell extracts were incubated with the respective catalytic tagging system for each of the two IAPs and the heavy extracts labeled only with the wild-type NEDD8 E2, Ubc12. 64 mg regular L-Lys and 83.6 mg L-Arg.HCl were added to 1 liter RPMI-1640 minus L-Lys and L-Arg (Thermo/Pierce), 10% fetal bovine serum (FBS) to generate “Light” medium. 100 mg ^13C6^15N2 L-Lys.2HCl and 86 mg ^13C6 L-Arg.HCl (Cambridge Isotope) were added to the same amount of medium to generate the “Heavy” medium. Jurkat cells were cultured separately in “Light” or “Heavy” medium for 7 days to allow for thorough isotope incorporation. For IAP substrate identification, 400 million cells were treated with 2 μM STS for 4 hours, harvested, lysed in M-PER mammalian protein extraction buffer (Thermo/Pierce) in the presence of protease inhibitors (100× ProteoBlock cocktail, Fermentas) and mixed with cell lysate prepared from 400 million untreated cells. The NEDDylated proteins were isolated under denaturing conditions via the HB-NEDD8 tag using a tandem affinity pull down procedure (Tagwerker et al., Mol Cell Proteomics 5:737-748 (2006)) (FIG. 11). Purified NEDDylated proteins were trypsinized and analyzed with tandem mass spectrometry (LC-MS/MS).\nFor SILAC experiments, Jurkat cells were cultured separately in “Light” (supplemented with regular Lys and Arg) or “Heavy” (supplemented with ^13C6^15N2 Lys and ^13C6 Arg) medium for 7 days to allow for thorough isotope incorporation. Apoptotic “Light” and “Heavy” cell extracts were prepared individually. The lysates were cleared by spinning and then diluted in 50 mM HEPES pH 7.4, 150 mM NaCl to 5 mg/ml and supplemented with 5 mM ATP, 10 mM MgCl2. Endogenous NEDD8 E1 is cell lysate was used to catalyze the reaction. HB-NEDD8 was added to both lysate at mass ratio 1:500; the catalytic tagging system was added to the “Light” lysate at mass ratio 1:1000. Equal molar of Ubc12 was added to the “Heavy” lysate. […] NEDDylated proteins were separated by one-dimensional SDS-PAGE, and trypsinized for LC-MS/MS analysis.\nFor liquid chromatography—Tandem mass spectrometry (LC-MS/MS) analysis, the tryptic peptides were first desalted and concentrated with a C18 Ziptip (Millipore). LC-MS/MS was carried out by reverse phase LC interfaced with a LTQ-Orbitrap (ThermoFisher Scientific) hybrid mass spectrometer. A nanoflow HPLC (NanoAcquity UPLC system, Waters Corporation) was equipped with a trap column (180 μm×20 mm, 5 μm SymmetryC18, from Waters) and an analytical column (100 μm×100 mm, 1.7 μm BEH130C18, from Waters). […]"}, "[2]": {"system": "HeLa cells", "experiment": "Cell viability by CellTiter-Glo after STS treatment", "format": "cell-based", "details": "24 hours after transfection, STS 2 hours", "procedure": "FIG. 13 illustrates functional studies of PGAM5 in cells. (A) PGAM5(Δ24) binds XIAP and cIAP1 in vivo. On the left, HEK293 cells were cotransfected with Flag-cIAP1 and PGAM5(FL)-Myc or PGAM5(Δ24)-Myc. Total cell lysates were analyzed by immune-blotting with anti-Flag and anti-Myc antibodies (bottom two panels). Anti-Myc immune-precipitates (IP) were subjected to immunoblot analysis using anti-Myc and anti-Flag antibodies (top two panels). On the right, PGAM5(Δ24)-Myc was transiently expressed in HEK293 cells. 36 hours after transfection, cells were lysed and subjected for Immuno-precipitation with either anti-Myc antibody or an isotype control antibody (mouse IgG). Proteins in the whole cell lysate (bottom three panels) and proteins that bind to the antibody conjugated sepharose beads (top three panels) were assayed with immunoblotting. […] 24 hours after transfection, cell viability was measured by Annexin V staining. […] Error bars represent SEM calculated from triplicate experiments. […] Cell viability is then immediately measured by CellTiter-Glo luminescent assay. […] PGAM5 levels are analyzed with anti-Myc immune-blotting before STS treatment. Error bars represent SEM calculated from triplicate samples.\nHeLa cells were plated in 96 well plates and transfected with either empty vector or the PGAM5 construct. […] Luminescent signals were read using a SpectraMax (Molecular Devices) plate reader."}},
  "data": [
    {"molecule": "B1", "values": [
      {"measurement": "L/H (Light/Heavy ratio)", "setting": "[1]", "value": 5.88},
      {"measurement": "sensitization to apoptosis inducer STS", "setting": "[2]", "value": "sensitized cells to the apoptosis inducer STS"}
    ]}
  ]
}
